Patent publication US20180273614A1 (GALAPAGOS, published 2018)

T1: human IL-17C (human, UniProt Q9P0M4 19-197)
T1 construct: Endogenous IL-17C in paraffin sections of human skin biopsies (IHC); The background calls IL-17C a secreted homodimer; also called interleukin 17C
T1 sequence: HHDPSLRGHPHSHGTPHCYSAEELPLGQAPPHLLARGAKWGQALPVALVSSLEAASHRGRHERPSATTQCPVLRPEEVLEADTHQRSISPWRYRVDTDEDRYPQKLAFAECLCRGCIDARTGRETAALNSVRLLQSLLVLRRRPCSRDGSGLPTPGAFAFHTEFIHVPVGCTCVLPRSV

T2: murine IL-17C (mouse, UniProt Q8K4C5 17-194, limits assumed)
T2 construct: Endogenous IL-17C in paraffin sections of ear skin of BALB/c mice (IHC); also called IL-17C (mouse skin)
T2 sequence (looked up): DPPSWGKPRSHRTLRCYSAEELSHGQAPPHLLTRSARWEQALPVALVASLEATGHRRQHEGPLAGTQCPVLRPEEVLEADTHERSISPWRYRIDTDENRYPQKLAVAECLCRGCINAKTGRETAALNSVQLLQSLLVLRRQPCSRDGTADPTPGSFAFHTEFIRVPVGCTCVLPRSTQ

B1: MOR22420 (antibody, V domains shown)
VH: QVQLVQSGAEVKKPGSSVKVSCKASGGTFSSYAISWVRQAPGQGLEWMGTIDPFFGKTYYAQKFQGRVTITADESTSTAYMELSSLRSEDTAVYYCARDVSSISYYFHEYYSDRFDYWGQGTLVTVSS
VL: DIALTQPASVSGSPGQSITISCTGTSSDVGGYEYVNWYQQHPGKAPKLMIYDDSYRPSGVSNRFSGSKSGNTASLTISGLQAEDEADYYCQSTDPHSTVVFGGGTKLTVLG
notes: also called biotinylated MOR22420; MOR22420 antibody
B2: MOR12743 (antibody, V domains shown)
VH: QVQLVQSGAEVKKPGASVKVSCKASGYTFTSNFIHWVRQAPGQGLEWMGWISPYNGDTNYAQKFQGRVTMTRDTSISTAYMELSRLRSEDTAVYYCARESVYYGSDYGYNGMDIWGQGTLVTVSS
VL: DIELTQPPSVSVSPGQTASITCSGDNLGEEYVSWYQQKPGQAPVLVIYDDTKRPSGIPERFSGSNSGNTATLTISGTQAEDEADYYCASWDLWSVEVFGGGTKLTVLG
notes: Said to be disclosed and characterized in WO 2013/057241; also called anti-IL-17C biotinylated MOR12743 antibody; anti-IL-17C MORI 2743 antibody

Experiments:
[1] = target: T1, human IL-17C; assay: IHC on paraffin sections of human skin (healthy and atopic dermatitis), biotinylated antibody, avidin-biotin-peroxidase detection
Protocol: (§1) 4 μm-thick slices from paraffin-embedded skin biopsies from healthy subjects and subjects with atopic dermatitis were analyzed by IHC. Staining for IL-17C expression was performed with biotinylated MOR22420 (and MOR03207 isotype control antibody). In brief, sections were deparaffinised, rehydrated and unmasked by heat epitope antigen retrieval. Endogenous peroxidase was blocked in BLOXALL™ Blocking Solution (Vector Laboratories) and non-specific binding was blocked with 2.5% Horse Serum Blocking Solution (Vector Laboratories). The primary antibodies were incubated for one hour at room temperature. Binding of MOR22420 biotinylated antibody and MOR03207 biotinylated antibody was detected by incubation with Avidin Biotin Peroxidase Complex (Vector Laboratories). The signal was developed using the peroxidase substrate diaminobenzidine tetrahydrochloride (Sigma). Mayer's hematoxylin (BDH) was used for counterstaining before dehydration and mounting of slides.

[2] = target: T2, murine IL-17C; assay: IHC on paraffin sections of mouse ear skin (MC903 model), biotinylated antibody
Protocol: as §1
At sacrifice, samples form ear skin were collected and fixed in 4% formaldehyde before embedding in paraffin. […] Five fields per ear (high power field ×20) covering the whole ear from top to bottom were measured, and the 5 values were averaged per ear and per mice (left/right ear). […]

| Binder | binding result [1] | binding result [2] |
| --- | --- | --- |
| B1 | binds | – |
| B2 | – | binds |
